Laboratory results as given in US20200407442A1 (WUXI BIOLOGICS IRELAND, published 2020).
Residue numbers refer to the chain shown, from its start. Blank lines part the entries; values can stand above or below the binder they belong to.

What was measured:
[1] = molecular target: T1, full-length human LAG-3 on cells (human, UniProt P18627 23-525); experiment: FACS on human LAG-3 transfectant cells
T1 construct: Expressed on Flp-In-293, CHO or 293F transfectants; also called hPro1.FL; cell surface human LAG-3
T1 sequence: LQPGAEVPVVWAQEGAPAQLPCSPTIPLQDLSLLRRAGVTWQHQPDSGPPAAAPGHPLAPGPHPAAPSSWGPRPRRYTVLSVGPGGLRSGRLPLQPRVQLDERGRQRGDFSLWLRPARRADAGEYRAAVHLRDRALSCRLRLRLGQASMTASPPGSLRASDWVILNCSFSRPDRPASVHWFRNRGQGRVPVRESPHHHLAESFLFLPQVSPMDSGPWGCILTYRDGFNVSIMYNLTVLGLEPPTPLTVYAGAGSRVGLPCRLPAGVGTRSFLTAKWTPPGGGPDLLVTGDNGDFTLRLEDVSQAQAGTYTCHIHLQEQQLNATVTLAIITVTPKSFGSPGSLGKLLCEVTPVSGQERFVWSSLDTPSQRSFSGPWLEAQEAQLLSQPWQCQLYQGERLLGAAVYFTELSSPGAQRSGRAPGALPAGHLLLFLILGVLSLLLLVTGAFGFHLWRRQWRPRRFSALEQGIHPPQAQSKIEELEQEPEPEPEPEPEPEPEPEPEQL
Experimental: Various concentrations of testing antibodies, positive and negative controls were added to human LAG-3 transfectant cells, and then the binding of antibodies onto the surface of the cells was detected by corresponding PE-labeled secondary antibodies.

[2] = molecular target: T1, full-length human LAG-3 on cells; experiment: FACS affinity on Flp-In-293 cells expressing human LAG-3
Experimental: Antibody binding affinity to cell surface LAG-3 was measured by FACS analysis. Flp-In-293 cells expressing human LAG-3 were transferred in to 96-well U-bottom plates at a density of 5×10⁵ cells/mL. Tested antibodies were serially diluted in wash buffer (1×PBS/1%BSA) and incubated with cells at 4° C. for 1 h. The secondary antibody goat anti-human IgG Fc FITC (3.5 moles FITC per mole IgG) was added and incubated at 4° C. in the dark for 0.5 h. The cells were then washed once and resuspended in 1×PBS/1%BSA, and analyzed by flow cytometry. Fluorescence intensity will be converted to bound molecules/cell based on the quantitative beads (QuantumTM MESF Kits, Bangs Laboratories, Inc.). Affinity was calculated using Graphpad Prism 5.

[3] = molecular target: T2, human LAG-3-ECD.D12.mFc mutant G37A (human, UniProt P18627 38-252); experiment: ELISA, antibody coated, LAG-3 D12.mFc mutant in supernatant, normalised to control mutants
T2 construct: Alanine scanning mutant; construct limits as for m26
T2 sequence: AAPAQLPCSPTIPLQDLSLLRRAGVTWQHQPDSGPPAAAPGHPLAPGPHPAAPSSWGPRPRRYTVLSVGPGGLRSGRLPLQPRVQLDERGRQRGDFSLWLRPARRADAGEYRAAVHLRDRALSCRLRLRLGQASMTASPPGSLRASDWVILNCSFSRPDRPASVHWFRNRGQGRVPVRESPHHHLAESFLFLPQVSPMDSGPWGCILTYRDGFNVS
Experimental: (§1) For ELISA binding assay, the antibody 1.53.3-uAb-IgG4k or 3.40.19-uAb-hIgG4L (2 μg/mL) was coated in plates. After interacting with the supernatant that contains quantified LAG-3 mutants or human LAG-3-ECD.D12.mFc protein, HRP conjugated anti-mFc antibody (1:5000; Bethyl, USA) was added as a detection antibody. Absorbance was normalized according to the average absorbance of control mutants. After setting an additional cutoff to the binding fold change (<0.75), the final determined epitope residues were identified.

[4] = molecular target: T3, human LAG-3-ECD.D12.mFc mutant L164A (human, UniProt P18627 37-252); experiment: as above
T3 construct: Alanine scanning mutant; construct limits as for m26
T3 chain: T2 sequence with A1G, L128A
Experimental: as §1

[5] = molecular target: T4, human LAG-3-ECD.D12.mFc mutant L122A (human, UniProt P18627 37-252); experiment: as above
T4 construct: Alanine scanning mutant; construct limits as for m26
T4 chain: T2 sequence with A1G, L86A
Experimental: as §1

[6] = molecular target: T5, human LAG-3-ECD.D12.mFc mutant E146A (human, UniProt P18627 37-252); experiment: as above
T5 construct: Alanine scanning mutant; construct limits as for m26
T5 chain: T2 sequence with A1G, E110A
Experimental: as §1

[7] = molecular target: T6, human LAG-3-ECD.D12.mFc mutant D143A (human, UniProt P18627 37-252); experiment: as above
T6 construct: Alanine scanning mutant; construct limits as for m26
T6 chain: T2 sequence with A1G, D107A
Experimental: as §1

EC50 [1]: 0.13 nM | Kd [2]: 0.053 nM | Fold Change [3]: 0.284 | Fold Change [4]: 0.278 | Fold Change [5]: 0.391 | Fold Change [6]: 0.582 | Fold Change [7]: 0.529
B1: 3.40.19-uAb-IgG4L (antibody, V domains shown)
VH: QLQLQESGPGLVKPSETLSLTCTVSGDSISSTSYYWGWIRQPPGKGLEWIGSFYYSGSTYYNPSLKSRVTISVDTSKNQFSLKLNSVTAADTAVYYCARMQLWSYDVDVWGQGTTVTVSS
VL: QSALTQPASVSGSPGQSITISCTGTSSDVGGYDYVAWYQQHPGKVPKLMIYDVSERPSGVSNRFSGSKSGNTASLTISGLQAEDEADYYCSSYTSTTTLVVFGGGTKLSVL
notes: Fully human antibody from OMT rats; IgG4 lambda by its name; also called 3.40.19-uAb-hIgG4L

EC50 [1]: 0.43 nM | Kd [2]: 0.16 nM | Fold Change [3]: 0.558 | Fold Change [4]: 0.586 | Fold Change [5]: 0.607 | Fold Change [6]: 0.701 | Fold Change [7]: 0.671
B2: 1.53.3-uAb-IgG4k (antibody, V domains shown)
VH: QVQLQQWGAGLLKPSETLSLTCGVYGGSFSGYYWSWIRQPPGMGLEWIGEINHRGNTNYNPSLKSRVTISEDTSKNQFSLRLSSVTAADTAVYFCTRGEDYSDYDYYGDFWGQGTLVTVSS
VL: EIVLTQSPATLSLSQGERATLSCRASQSISSYLAWYQQKPGQAPRLLIYAASNRATGIPARFSGSGSGTDFTLTISSLEPEDFAIYYCQQRSNWPLTFGGGTKVEIK
notes: Fully human antibody from OMT rats; IgG4 kappa by its name
